In article PMC3500403 (Developmental cell, 2012) one finds Kd data, which are given here for one molecule.

The target of this assay is taxol stabilized microtubules (UniProt Q6B856 1-445). The assay can be described thus: co-sedimentation.

B1: C. elegans SKA-1 microtubule binding domain (residues 118-243) (domain or fragment, UniProt Q9XWS0 118-243, looked up)
chain: NDIRIVPQITDEEFKTIPKYQLGRLTLEMMNEIVSKMDDFLMKKSKILGKTNKQLTRSDREVLDNWRELEMKARKRLPTTLFFIETDIRPMLQDRLRPSFAKAIPCLRHIRRIREERCGPLTFYYP
Broadly, the Kd is a measure of binding affinity in units of concentration. Read a high Kd as weaker binding. On to B1, for which binding was put at a Kd of 6.3 µM.
